Laboratory results as given in paper PMC4613674.

Target: MBP–Cas5–Cas7 complex (Methanothermobacter thermautotrophicus) (Methanothermobacter thermautotrophicus ΔH)
Assay: pull-down; MBP–Cas5–Cas7 (20 μg) held on amylose resin, His6–Cas8′ (20 μg) added, final volume 500 μl, 2–4 h at 4°C; 20 mM Tris/HCl pH 8.0, 150 mM NaCl, 1 mM EDTA, 1% Tween; western blots with anti-His6 and anti-MBP; with or without pre-incubation of Cas5–Cas7 with crRNA1

percent of input bound: < 10%
Substance: N-terminal hexahistidine-tagged Mth Cas8′ (natural protein)
